The nanobody polyreactivity screen of Harvey et al. (2022)

Test: yeast display, Sf9 membrane polyspecificity reagent, FACS + sequencing; frameworks hold sequencing errors
Outline: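 A synthetic nanobody library was expressed on Saccharomyces cerevisiae BJ5465 by galactose induction for 36–48 hours. The library was stained for 1 hour at 4 °C with 10% biotinylated, detergent-solubilized Sf9 membrane reagent and enriched with streptavidin microbeads before FACS. Low and high (top ~1%) gates were set on anti-HA fluorescence for expression and streptavidin fluorescence for reagent binding, and each polyreactivity label reflects the gate of origin.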

Sequence	polyreactivity (PSR sort gate)
QVQLVESGGGLVQAGGSLRLSCAASGSIFQGYAMGWYRQAPGKERELVARITSDDDSTYYADSVKGRFTISRDNAKITVYLQMNSLKPEDTAVYYCNADYYWTSLAMDSWGQGTKVTVSS	low polyreactivity
QVQLVESGGGLVQAGGSLRLSCAASGRIFGDYALGWYRQAPGKERELVAAISWSDGSTYYADSVKGRFTISRDKAKNTVYLQMNSLKPEDTAVYYCAAYGWGYSYVDVVVSDFYYWGQGTQVTVSS	low polyreactivity
QVQLVESGGGLLQAGGSLRLSCAASGSTFYIYSMGCYRQAPGKERELVARISGAGGSTYYSDSVKGRFTISRDNAKNTVYFQMNCLNPEDTAVYYCAAVDIYKYYQYYACPYDSYDYWGQGTQVTVSS	low polyreactivity
QVQLVESGGGLVQAGGSLRLSCAASGRIFWANAMGWYRQAPGKERELVAAISRRGGSTYYADSVKGRFTISRDNAKNTVSLQMNSLKPEDTAVYYCNAVSPYTSDDYDYWGQGTQVTVSS	high polyreactivity
QVQLVDSGGGLVQAGGSLRLSCAASGFIDALDAMGWYRQAPGKERELVAAISYSGGSTYYADSVKGRFTISRDNAKNTVYLQMNSLKPEDTAVYYCAVYYRSAFYYWGQGTQVTVSS	high polyreactivity
QVQLVESGGGLVQAGGSLRLTCAASGFTFHVNTMGWYRQAPGKEMELVAAISWSGGSTYYADSVKGRFTISRDTAKKTVYLQMNSLNPEDTAVYYCNAVPVSYRGVYWGQGTQVTVSS	low polyreactivity
QVQLVESGGGIVQAGGSLSLSCAASGSTFYSYDMVWYRPAPGKERELVAAISWEGGRPYYADSVKGRFTISRDNAKNNVYLQMNSLKPEDTAVYYCADAYPTYRHYYWGQGTQVSVSS	low polyreactivity
QVQLVESGGGLVQAGGSLRLSCAASGSIFGPYAMGWYRQAPGKERELVAGITRSVGSTYYADSVKGRFTISRDNAKNTVFLQMNSLKPEDTAVYYCNAKWLYSRWAGYDYWGQGTQVTVSS	low polyreactivity
QVQLVESGGGLVQAGGSLRLSCAASGFTFYYYAMGWYRQAPGTERELVASITSTDSTTYADSVKGRFTISRDNAKNTVYLQMNSLKPEDTAVYYFNRLYYHWYGGLDYWGHGTQVTVSS	high polyreactivity
QVQLVESGGGLVQAGGSLRLSCAPSGSTFDPFAMGWYRQAPGKERELVADITSSDGSTYYADSVKGRFTISRDNAKNTVYFQMNSLKPEVTAVYYCYSDYRYFWTYWGWSIYDYWGQGTQVTVSS	high polyreactivity
QVQLVESGGGLVQAGGSLRLSCAASGRTFATNTMGWYRQAPGKERELVAAITFSGGSTYYADSVKGRFTISRDNAKNTVYLQMNSLKREDTAVYYCNVRSPYYSYRYRYGYWGHGTQVTVSS	high polyreactivity
QVQLVESGGGLVQAGGSLRLSCAASGIIFSWYDMGWYRQAPGKERELVAAISSGDRTNYADSVKGRFTISRDNAKNTVYLQMNSLKPEDTAVYYCAADLFPIAGEYDYWGQGTQVTVSS	high polyreactivity
QVQLVESGGGLVQAGGSLRLSCAASGSIFASNAMGWYRQAPGKDTELVAAITYSGGSTYYADSVKGRFTISRDNAKKTVDLQMNSLKPEDTAVYYCAADVSVPQRYDYWGQGTQVTVSS	low polyreactivity
QVQLVESGGGLVQAGGSLRLSCAASGFTFWGYTMGWYRQAPGKERELVAAITSTGSTYYADSVKGRFTISRDNAKNTVYFLMNSLKPEDTAVYYCAATRGSSEYYYWGQGTQLTVSS	low polyreactivity
QVQLVESGGGLVQAGGSLRLSCAASGRIFRVYAMGWSRQAPGKERELVAAIRWTGGSTYYADSVKGRFKISRDNAKNTVYIQIHSLKAEDTAVSYCAAGRYYSDGSRTIYDYWGQGTQVTGSS	high polyreactivity
QVQLVESGGGLVQAGGSLRLSCAASGRTFRLYAMGWDRPAPGKERELVAAITRGGRTTYADSVKGRFTISRDNAKNTVYLQMNSLKPEDTAVYYCAARYVERHTDYYYWGQGTQVTVSS	low polyreactivity
QVQLVESGGGLVQAGGSLRLSCAASGRTFPVYDMGWYRQAPGKERELVAGITGSGGRTYYADSVKGRFTISRDNAKNTVYLQMNSLKPEDTAVYYCAADRNLYWDQHEYWGQGTQVTVSS	low polyreactivity
QVQLVESGGGLVQAGGSLRLSCAASGSIFIGNTMGWYRPAPGNERELVATIRRSGSRTYYADSVKGRFTISRDNAKNTVYLQMNSLKPEDTAVYYCAADRLRTSGYKTIYDYWGQGTQVTVSS	low polyreactivity
QVQLVESGGGLVQAGGSLRLSCAASGITIKYYTMGWYRQAPGKERELVAAISRSGGSTYYADSVKGRFTISRDNAKNTVYLQMNSLIPEDTAVYYCAAERGAYRGVTFTYGYWGQGTQVTVSS	high polyreactivity
QVQLVESGGGLVQAGGSLRLSCAASGSIFWGNAMGWYRQAPGKERELVAAITSGGSTNYADSVKGRFTISRDNAKNTVYLQMNSLKPEDTAVYYCIADVARVPFEFDYWGQGTQVTVSS	low polyreactivity
QVQLVESGGGLVQAGGSLRLSCAASGFILGYNAMGLYRQAPGKERELVAAINGGSGSTYYADSVKGRFTISRDNAKNTVYLQMNSLKPEDTAVYYCAAEVTWAFFYERDYWGQGTQVTVSS	high polyreactivity
QVQLVESGGGLVQAGGSLRLSCAASGRTFTPYAMGWYRQAPGKERELVAAINSDGSTNYADSVKGRFTISRDNAKNTVYLQMNSLKPEDTAVYYCAAGYSLEGDYWGQGTQVTVSS	low polyreactivity

Sequence	polyreactivity (PSR sort gate)
QVQLVESGGGLVQAGGSLRLSCAASGFIFEYNAMGWYRQAPGKERELVAAITSSGGSTYYADSVKGRFTISRDNAKNTVYLKMYSLKPEDTAVYYCARVRRSAYYKDYYYWGQGTQVTVSS	high polyreactivity
QVQLVESGGGLVQAGGSLRLSCAASGSTLVIYAMGWYRQAPGKERELVAAISRGGTTYYADSVKGRFTISRDNAKNTVYLQMNSLKPEDTAVYYCAADARVKRYYFRKSGYWGQGTQVTVSS	high polyreactivity
QGQLVESGGGLVQAGGSLRLSCAASGRIVSVYAMGWYRQAPGKEREFVASISWRGGRTYYADSVKGRFTISRDNAKNTVYLQMNSLKPEDTALYYCATGYDYYVRRYYYWGQGTQVSVSS	high polyreactivity
QVQLVESGGGLVQAGGSLRLSCAGSGFSFPNNGMGGYRQAPGKERELVAAIRSSGGSTYYADSVKGRFTISRDNAKNTVYLQMNSLKPEDTAVYYCNARRRGGYVGRPRYPVAAYDYWGQGTQVTVSS	low polyreactivity
QVQLVESGGGLVQAGGSLRLSCAASGSTFARNAMGWYRPAPGKERELVAAITNAGDTNYADSVKGRFTISRDNAKNTVYLQMNSLKPEDTAVYYCAADTRFYSGRGTVSGDYWGQGTQVTVSS	low polyreactivity
QVQLVESGGGLVQAGGSLRFSCAASGSIFSVYAMGWYRQAPGKEREWVAAITSGTYTYADSVKGRFTISRDNAKNSVYLQMNSLKAEDTAVYYCAAESGSPGYYYWGQGTQVTVST	low polyreactivity
QFQLVESGGGLVQAGGSLRLSCAASGFTFYRNAMGWYRQAPGKERELVAAITSTGSTNYADSVKGRFTISRDNAKNTVYLQMNSLKPEDTAVYYCNKRRFGRQGMDYWGQGTQVTVSS	low polyreactivity
QVQLVESGGGLVQAGGSLRLSCAASGLTFAENAMGWYRQAPGKERELVAAISASGGSTYYADSVKGRFTISRDNAKNTVFLQMNSLKPEDTAVYYCATRVAFLWPRRDYDYWGQGTQVTVSS	low polyreactivity
QVQLVDSGGGIVQAGGSLRLSCPASGSTFGSYALGWSRQKPGKEREWVAAITSAGSTNYADSVKGRFTISRDNAKNTVYLQMNSLKPEDTAVYYCNDVRYYSYQYDPEVTHRYGYWGQGSQVTVSS	high polyreactivity
QVQLVESGGGLVQAGGSLRLSCAASGRTFTYYAMGWYRQAPGKERELVATIRSGGTTNYADSVKGRFTISRDNAKNTVYLQMNSLKPEDTAVYYCARVLSYVWYYRDPYQYPDYDYWGQGTQVTVSS	low polyreactivity
QVQLVESGGGLVQAGGSLRLSCAASGSTFYVYAMGWYRQAPGKERELVAAINFNGGGTYYADSVKGRFTISRDNAMNTVYLQMNSLKPEDTAFYYCNAEDDYTYDRSFGGYKYDYWGQGTQVTVSS	low polyreactivity
QVQLVESGGGLVQAGGSLRLSCADSGFNFYQYAMGWYRQAPGKERELVAVISGSGSRTYYADSVKGRFTISRDNAKNTVYLQMNSLKPEDTAVYYCAAKGVIISYDTLRYDSWGQGTQVTVSS	high polyreactivity
QVQLVESGGGLVQAGGSLRLSCAASGFTFFVYAMGWYRQAPGKEREGVAVITSGGTTNYADSVKGRFTISRDNAKNTVYLQMNSLKPEDTAVYYCATDNGGIPKYVPYDYWGQGTQVTVSS	high polyreactivity
QVQLVESGGGLVQAGGSLRLSCAASGSIFYPYAMGWYRQAPGKERELVAAISSGGRTYYADSVKGRFTISRDNAKNTVYLQMNSLKPEDTAVYYCAARPKAYGRPPGYYWGQGTQVTVSS	high polyreactivity
QDQHVESGGGLVQAGGSLRLSCAASGRTFSYYTMGWYRQAPGKERELVAAISRRGGNTYYADSVKGRFTISRDNAKNTVYLQMNSLKPADTAVYYCAALSYAKHYDPSGYDYWGQGTQVTVSS	high polyreactivity
QDQLVDSGGGLLQAGGSLRLSCAASGSMLSTYAMGWYRQATGKERELVASISSIAGSTYYADSVKGRFTISRDNAMNTVYLQLNILKPEDNAVYYCNKVYGGGSYDYWGQGTQVTVSS	low polyreactivity
QVQLVESGGGLVQAGGSLRLSCAASGFTFPKYAMGWYRQAPGKERELVAGITTGGSTYYADSVKGRFTISRDNAKNTVYLQMNSLKPEDTAVYYCAASGRLSLGGRFYDLGLRYDYWGQGTQVTVSS	low polyreactivity
QVQLVESGGGLVQAGGSLRLSCAASGSIFGDYAMGWYRQAPGKERELVAAITSSGGITYYADSVKGRFTISLDNAKNTVYLQMKSLNPEDTAVYYCAAYGYGSNYRYTGYYYWGQGTQVTVSS	low polyreactivity
QVQLGESGGGLFQAGGSLRLSCAASVRIFKGYNMGWYREAPRKEMELVAAISKSGGRTYYADSVKGRFTISRDNAKNTVYLQMNSQKPVDTAVYYCAARGGCKRPFGYQLQYDYWGQGTQVTVSS	high polyreactivity
QVQLVESGGGLVQAGGSLRLSCAASGSTFAFNAMGWYRQAPGKERELVATISQSGGSTYYADSVKGRFTISRDNAKNTVYLQMNSLKPEDTAVYYCAKRYWSKWYGRYEYWGQGTQVTVSS	low polyreactivity
QVQLVESGGGLVQAGGSLRLSCAASGTIFDSYAKVWYRQAPGKERELVAAISSSVGSTYYADSVKGRFTISRDNAKNTVYLQMNSLKPEDTAVYYCNADEYWASGYDPYDYWGQGTQVTVSS	low polyreactivity
